Laboratory results reported in US11833164B2, “Methods of treating Fabry disease in patients having a mutation in the GLA gene” (Amicus Therapeutics, Inc., priority 2019, dated 2023).
Residue numbers refer to the chain shown, from its start. Numbers in names are those of the source.

System: mutant form of α-Gal A expressed in HEK-293 cells
Test: HEK assay (GLP HEK / Migalastat Amenability Assay): α-Gal A activity in lysates of transiently transfected HEK-293 cells incubated with or without 10 μM migalastat
Format: cell-based, human
Conditions: for Absolute increase (% WT) / Relative increase: 10 μM migalastat versus baseline; for Baseline α-Gal A activity (% WT): absence of migalastat; for Baseline α-Gal A activity (% WT) / 10 μM migalastat α-Gal A activity (% WT): percentage of baseline wild-type α-Gal A activity; for Baseline α-Gal A activity (% WT) / Baseline α-Gal A activity / 10 μM migalastat α-Gal A activity / 10 μM migalastat α-Gal A activity (% WT): mean ± SEM; for Baseline α-Gal A activity / 10 μM migalastat α-Gal A activity: lysates of HEK-293 cells transiently transfected with the mutant form; for Baseline α-Gal A activity: incubated 5 days in absence of migalastat; for 10 μM migalastat α-Gal A activity: incubated 5 days with 10 μM migalastat; for 10 μM migalastat α-Gal A activity (% WT): with 10 μM migalastat, 5 days
In short: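 HEK-293 cells transiently transfected with mutant α-Gal A and incubated with or without 10 μM migalastat; lysate activity given as nmol free 4-MU released per mg protein per hour. Values are mean±SEM.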

B1: Q306L (protein)
chain: MQLRNPELHLGCALALRFLALVSWDIPGARALDNGLARTPTMGWLHWERFMCNLDCQEEPDSCISEKLFMEMAELMVSEGWKDAGYEYLCIDDCWMAPQRDSEGRLQADPQRFPHGIRQLANYVHSKGLKLGIYADVGNKTCAGFPGSFGYYDIDAQTFADWGVDLLKFDGCYCDSLENLADGYKHMSLALNRTGRSIVYSCEWPLYMWPFQKPNYTEIRQYCNHWRNFADIDDSWKSIKSILDWTSFNQERIVDVAGPGGWNDPDMLVIGNFGLSWNQQVTQMALWAIMAAPLFMSNDLRHISPLAKALLQDKDVIAINQDPLGKQGYQLRQGDNFEVWERPLSGLAWAVAMINRQEIGGPRSYTIAVASLGKGVACNPACFITQLLPVKRKLGFYEWTSRLRSHINPTGTVLLQLENTMQMSLKDLL
With B1 the “Absolute increase (% WT)” value was 19.6 % WT, the Relative increase was 1.3 and the “Baseline α-Gal A activity (% WT)” value was 56.9 ± 4 % WT. The “Baseline α-Gal A activity” value was 19792 ± 1899 nmol/mg/h, the “10 μM migalastat α-Gal A activity” value was 26515 ± 1960 nmol/mg/h and the “10 μM migalastat α-Gal A activity (% WT)” value was 76.4 ± 3.4 % WT.

B2: K308R (protein)
chain: B1 chain with L306Q, K308R
With B2 the “Absolute increase (% WT)” value was 20.3 % WT, the Relative increase was 1.3 and the “Baseline α-Gal A activity (% WT)” value was 68.9 ± 4.3 % WT. For the same molecule, the “Baseline α-Gal A activity” value was 27103 ± 1767 nmol/mg/h, the “10 μM migalastat α-Gal A activity” value was 35824 ± 2438 nmol/mg/h and the “10 μM migalastat α-Gal A activity (% WT)” value was 89.1 ± 4.5 % WT.

B3: A307S (protein)
chain: B1 chain with L306Q, A307S
B3 was tested, and the “Absolute increase (% WT)” value was 27.7 % WT, the Relative increase was 1.3 and the “Baseline α-Gal A activity (% WT)” value was 85.9 ± 4.5 % WT. The “Baseline α-Gal A activity” value was 29300 ± 2037 nmol/mg/h, the “10 μM migalastat α-Gal A activity” value was 38558 ± 2274 nmol/mg/h and the “10 μM migalastat α-Gal A activity (% WT)” value was 113.6 ± 5.2 % WT.

B4: A307P (protein)
chain: B1 chain with L306Q, A307P
In the case of B4, the “Absolute increase (% WT)” value is reported as 12.3 % WT, the Relative increase is reported as 1.4 and the “Baseline α-Gal A activity (% WT)” value is reported as 32.8 ± 1.7 % WT. For the same molecule, the “Baseline α-Gal A activity” value was 11388 ± 905 nmol/mg/h, the “10 μM migalastat α-Gal A activity” value was 15572 ± 1124 nmol/mg/h and the “10 μM migalastat α-Gal A activity (% WT)” value was 45.2 ± 2.1 % WT.

B5: K308I (protein)
chain: B1 chain with L306Q, K308I
For B5, the “Absolute increase (% WT)” value was 24.2 % WT, the Relative increase was 1.5 and the “Baseline α-Gal A activity (% WT)” value was 48.6 ± 3.9 % WT. For the same molecule, the “Baseline α-Gal A activity” value was 19195 ± 1555 nmol/mg/h, the “10 μM migalastat α-Gal A activity” value was 29251 ± 2026 nmol/mg/h and the “10 μM migalastat α-Gal A activity (% WT)” value was 72.7 ± 3.6 % WT.

B6: A307D (protein)
chain: B1 chain with L306Q, A307D
With B6 the “Absolute increase (% WT)” value was 35.9 % WT, the Relative increase was 1.3 and the “Baseline α-Gal A activity (% WT)” value was 126 ± 5.7 % WT. For the same molecule, the “Baseline α-Gal A activity” value was 42522 ± 2430 nmol/mg/h, the “10 μM migalastat α-Gal A activity” value was 54502 ± 3031 nmol/mg/h and the “10 μM migalastat α-Gal A activity (% WT)” value was 161.9 ± 8.6 % WT.

B7: Q306P (protein)
chain: B1 chain with L306P
In the case of B7, the “Absolute increase (% WT)” value is reported as 30.0 % WT, the Relative increase is reported as 1.5 and the “Baseline α-Gal A activity (% WT)” value is reported as 57.4 ± 2.8 % WT. The “Baseline α-Gal A activity” value was 19933 ± 1648 nmol/mg/h, the “10 μM migalastat α-Gal A activity” value was 29495 ± 1671 nmol/mg/h and the “10 μM migalastat α-Gal A activity (% WT)” value was 87.5 ± 4.8 % WT.

B8: L310I (protein)
chain: B1 chain with L306Q, L310I
In the case of B8, the “Absolute increase (% WT)” value is reported as 19.6 % WT, the Relative increase is reported as 1.3 and the “Baseline α-Gal A activity (% WT)” value is reported as 72.8 ± 3.6 % WT. The “Baseline α-Gal A activity” value was 31871 ± 2599 nmol/mg/h, the “10 μM migalastat α-Gal A activity” value was 40310 ± 3345 nmol/mg/h and the “10 μM migalastat α-Gal A activity (% WT)” value was 92.4 ± 5.1 % WT.

B9: K308Q (protein)
chain: B1 chain with L306Q, K308Q
With B9 the “Absolute increase (% WT)” value was 30.0 % WT, the Relative increase was 1.5 and the “Baseline α-Gal A activity (% WT)” value was 59.1 ± 3.8 % WT. The “Baseline α-Gal A activity” value was 24208 ± 1996 nmol/mg/h, the “10 μM migalastat α-Gal A activity” value was 35663 ± 2680 nmol/mg/h and the “10 μM migalastat α-Gal A activity (% WT)” value was 89.1 ± 5.5 % WT.

B10: D313E (protein)
chain: B1 chain with L306Q, D313E
For B10, the “Absolute increase (% WT)” value was 13.2 % WT, the Relative increase was 1.3 and the “Baseline α-Gal A activity (% WT)” value was 42.5 ± 2.3 % WT. For the same molecule, the “Baseline α-Gal A activity” value was 14321 ± 1579 nmol/mg/h, the “10 μM migalastat α-Gal A activity” value was 18273 ± 1330 nmol/mg/h and the “10 μM migalastat α-Gal A activity (% WT)” value was 55.7 ± 1.9 % WT.

B11: Q312E (protein)
chain: B1 chain with L306Q, Q312E
B11 was tested, and the “Absolute increase (% WT)” value was 15.1 % WT, the Relative increase was 4.6 and the “Baseline α-Gal A activity (% WT)” value was 4.1 ± 0.2 % WT. The “Baseline α-Gal A activity” value was 1365 ± 57 nmol/mg/h, the “10 μM migalastat α-Gal A activity” value was 6331 ± 466 nmol/mg/h and the “10 μM migalastat α-Gal A activity (% WT)” value was 19.2 ± 1.7 % WT.

B12: D313V (protein)
chain: B1 chain with L306Q, D313V
With B12 the “Absolute increase (% WT)” value was 6.7 % WT, the Relative increase was 3.9 and the “Baseline α-Gal A activity (% WT)” value was 2.9 ± 0.2 % WT. For the same molecule, the “Baseline α-Gal A activity” value was 894 ± 33 nmol/mg/h, the “10 μM migalastat α-Gal A activity” value was 3480 ± 580 nmol/mg/h and the “10 μM migalastat α-Gal A activity (% WT)” value was 9.6 ± 0.9 % WT.

B13: Q312K (protein)
chain: B1 chain with L306Q, Q312K
With B13 the “Absolute increase (% WT)” value was 15.5 % WT, the Relative increase was 1.8 and the “Baseline α-Gal A activity (% WT)” value was 19.7 ± 1.4 % WT. For the same molecule, the “Baseline α-Gal A activity” value was 6733 ± 510 nmol/mg/h, the “10 μM migalastat α-Gal A activity” value was 11934 ± 624 nmol/mg/h and the “10 μM migalastat α-Gal A activity (% WT)” value was 35.2 ± 1.8 % WT.

B14: L311I (protein)
chain: B1 chain with L306Q, L311I
For B14, the “Absolute increase (% WT)” value was 23.2 % WT, the Relative increase was 2.9 and the “Baseline α-Gal A activity (% WT)” value was 12.1 ± 0.8 % WT. The “Baseline α-Gal A activity” value was 4020 ± 235 nmol/mg/h, the “10 μM migalastat α-Gal A activity” value was 11558 ± 781 nmol/mg/h and the “10 μM migalastat α-Gal A activity (% WT)” value was 35.3 ± 3.1 % WT.

B15: A307V (protein)
chain: B1 chain with L306Q, A307V
For B15, the “Absolute increase (% WT)” value was 34.7 % WT, the Relative increase was 2.3 and the “Baseline α-Gal A activity (% WT)” value was 27.5 ± 2 % WT. The “Baseline α-Gal A activity” value was 11478 ± 1200 nmol/mg/h, the “10 μM migalastat α-Gal A activity” value was 25989 ± 2015 nmol/mg/h and the “10 μM migalastat α-Gal A activity (% WT)” value was 62.2 ± 3.3 % WT.

B16: A307G (protein)
chain: B1 chain with L306Q, A307G
B16 was tested, and the “Absolute increase (% WT)” value was 23.4 % WT, the Relative increase was 1.5 and the “Baseline α-Gal A activity (% WT)” value was 52.9 ± 2.5 % WT. For the same molecule, the “Baseline α-Gal A activity” value was 17871 ± 1029 nmol/mg/h, the “10 μM migalastat α-Gal A activity” value was 26053 ± 1631 nmol/mg/h and the “10 μM migalastat α-Gal A activity (% WT)” value was 76.3 ± 3.1 % WT.

B17: K314E (protein)
chain: B1 chain with L306Q, K314E
B17 was tested, and the “Absolute increase (% WT)” value was 11.0 % WT, the Relative increase was 1.3 and the “Baseline α-Gal A activity (% WT)” value was 37.7 ± 2.5 % WT. The “Baseline α-Gal A activity” value was 13026 ± 1767 nmol/mg/h, the “10 μM migalastat α-Gal A activity” value was 16765 ± 2098 nmol/mg/h and the “10 μM migalastat α-Gal A activity (% WT)” value was 48.7 ± 2.8 % WT.

B18: A309T (protein)
chain: B1 chain with L306Q, A309T
With B18 the “Absolute increase (% WT)” value was 18.6 % WT, the Relative increase was 1.2 and the “Baseline α-Gal A activity (% WT)” value was 74.1 ± 4.6 % WT. The “Baseline α-Gal A activity” value was 29214 ± 1907 nmol/mg/h, the “10 μM migalastat α-Gal A activity” value was 36228 ± 1841 nmol/mg/h and the “10 μM migalastat α-Gal A activity (% WT)” value was 92.7 ± 4.8 % WT.

B19: K314M (protein)
chain: B1 chain with L306Q, K314M
With B19 the “Absolute increase (% WT)” value was 15.9 % WT, the Relative increase was 1.3 and the “Baseline α-Gal A activity (% WT)” value was 50.9 ± 3.8 % WT. The “Baseline α-Gal A activity” value was 18231 ± 2878 nmol/mg/h, the “10 μM migalastat α-Gal A activity” value was 23043 ± 2838 nmol/mg/h and the “10 μM migalastat α-Gal A activity (% WT)” value was 66.8 ± 3.8 % WT.

B20: A309D (protein)
chain: B1 chain with L306Q, A309D
In the case of B20, the “Absolute increase (% WT)” value is reported as 17.6 % WT, the Relative increase is reported as 1.2 and the “Baseline α-Gal A activity (% WT)” value is reported as 78.3 ± 5.2 % WT. The “Baseline α-Gal A activity” value was 31696 ± 3036 nmol/mg/h, the “10 μM migalastat α-Gal A activity” value was 38325 ± 2376 nmol/mg/h and the “10 μM migalastat α-Gal A activity (% WT)” value was 95.8 ± 3.7 % WT.

B21: Q312L (protein)
chain: B1 chain with L306Q, Q312L
For B21, the “Absolute increase (% WT)” value was 21.3 % WT, the Relative increase was 1.4 and the “Baseline α-Gal A activity (% WT)” value was 50.1 ± 4.1 % WT. The “Baseline α-Gal A activity” value was 16986 ± 1428 nmol/mg/h, the “10 μM migalastat α-Gal A activity” value was 23967 ± 1400 nmol/mg/h and the “10 μM migalastat α-Gal A activity (% WT)” value was 71.5 ± 4.6 % WT.
